Test results published in US10548981B2, “Silk-based drug delivery system” (TRUSTEES OF TUFTS COLLEGE, priority 2004, dated 2020).
Entries after “also recorded” stand apart in the source; their conditions may differ.

How the values were obtained:
[1] = Protein activity after water vapor treatment of drug loaded films; assay type: physicochemical; details: water vapor treatment of drug loaded films at 25° C. over a saturated Na2SO4 solution for 24 hours
Protocol: Conclusion: Drug release from silk films was a function of the drugs molecular weight and film treatment with methanol. […] This decrease of activity was correlated to methanol sensitivity of Lys (and to a lesser extent for HRP). Alternatively, crystallinity can be induced by water vapor treatment (data not shown) of drug loaded films at 25° C. over a saturated Na2SO4 solution for 24 hours.

[2] = Release of HRP and Lysozyme from silk films, analyzed by biological potency tests (FIG. 5); assay type: physicochemical; details: for release / released protein-drug activity: methanol treated films
[3] = loaded films exposed to methanol

Substance | protein activity [1] | release / released protein-drug activity ([2]; listed as Lys) | continuous release until [2, 3] [days] | initial burst [2, 3] | start of release [2, 3] [days] | release / released protein-drug activity [2] | initial burst, of the total loading ([2]; native silk films) [%] | lag phase ([2]; native silk films)
Lysozyme | No loss of protein activity | did not release substantial amounts over time; also recorded: substantially less protein-drug activity | – | – | – | – | – | –
horseradish peroxidase [HRP] | No loss of protein activity | – | 23 | No initial burst | 5 | substantially less protein-drug activity | 5 | two
